# “And” between values parts separate entries of the source, which are not always exact repeats. Equal entries are not always repeated.
# Columns and labels:
# Δ34 Pox = molecular target: T1, Δ34 Pox (Lactobacillus delbrueckii, UniProt Q1G7Z6); test: fold activity relative to no phospholipid, same coupled assay; assay type: biochemical; details: activator; 50 mM pyruvate, 50 mM phosphate, 15 μM FAD, 300 μM TPP, pH 5.6, 25 °C; lipid suspension
# T1 construct: gene pox1; C-terminal truncation lacking the last 34 residues, C-terminal His6, vector pFLAG-CTC, expressed in E. coli LOBSTR
# T1 sequence (Q1G7Z6 1-582): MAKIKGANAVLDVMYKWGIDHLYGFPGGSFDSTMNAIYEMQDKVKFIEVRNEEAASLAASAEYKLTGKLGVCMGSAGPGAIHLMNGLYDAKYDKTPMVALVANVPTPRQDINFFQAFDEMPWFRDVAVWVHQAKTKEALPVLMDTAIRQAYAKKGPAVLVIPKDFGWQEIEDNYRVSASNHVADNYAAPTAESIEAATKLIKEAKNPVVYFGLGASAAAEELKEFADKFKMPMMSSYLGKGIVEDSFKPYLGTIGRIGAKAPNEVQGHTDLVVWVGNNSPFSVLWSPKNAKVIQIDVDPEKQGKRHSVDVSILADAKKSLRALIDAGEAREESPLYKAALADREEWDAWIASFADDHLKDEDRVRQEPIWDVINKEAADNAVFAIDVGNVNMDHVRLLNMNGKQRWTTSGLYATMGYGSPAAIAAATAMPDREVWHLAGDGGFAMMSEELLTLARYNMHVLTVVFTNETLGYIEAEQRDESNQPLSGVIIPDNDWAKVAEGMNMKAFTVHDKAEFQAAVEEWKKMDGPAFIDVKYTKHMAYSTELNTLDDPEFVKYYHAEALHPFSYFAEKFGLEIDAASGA
# [1] = molecular target: Pyruvate oxidase (Pox) from Lactobacillus delbrueckii strain STYM1 (Lactobacillus delbrueckii STYM1); test: non-reducing SDS-PAGE; Coomassie stain of gel filtration fractions and of purified Pox after SDS-PAGE under non-reducing conditions; disulfide-linked dimer
# [2] = molecular target: Pyruvate oxidase (Pox) from Lactobacillus delbrueckii strain STYM1 (Lactobacillus delbrueckii STYM1); test: SEC; Superdex 200, 20 mM Bis-Tris pH 6, 150 mM NaCl, 0.5 mL/min; 840 ug purified Pox pre-incubated with 50 mM pyruvate, 300 uM TPP, 15 uM FAD for 10 min at room temperature; molecular weight from a standard curve of protein standards
stoichiometry N [1],stoichiometry N [2],Compound,fold activity (Δ34 Pox)
,,CCCCCCCC/C=C\CCCCCCCC(=O)O[C@H](COC(=O)CCCCCCCCCCCCCCC)COP(=O)(O)OCCN [phosphotidylethanolamine (16:0–18:1)],~ 2 fold
2,10 and 5,Pyruvate oxidase (Pox) from Lactobacillus delbrueckii strain STYM1 (enzyme),
